Values of other authors in article PMC3514595.

Target: IL-15Rα (UniProt Q13261)
UniProt Q13261, sequence (Q13261 31-205): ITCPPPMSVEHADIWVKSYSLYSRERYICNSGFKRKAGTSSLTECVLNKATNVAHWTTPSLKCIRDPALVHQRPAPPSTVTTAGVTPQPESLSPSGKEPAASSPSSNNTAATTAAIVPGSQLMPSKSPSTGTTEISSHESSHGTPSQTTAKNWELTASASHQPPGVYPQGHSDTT

Kd: 0.038 nM
Substance: IL-15 (from UniProt P40933)
